# Reference: the nanobody polyreactivity screen of Harvey et al. (2022)
# Assay: yeast display, Sf9 membrane polyspecificity reagent, FACS + sequencing; frameworks hold sequencing errors
# Outline: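 A nanobody's polyreactivity label depends on the gate it was sorted from. Yeast display cells were stained with 10% biotinylated, detergent-solubilized Sf9 membrane reagent for 1 hour at 4 °C, enriched on streptavidin microbeads and sorted by FACS. The low and high (top ~1%) gates were set on anti-HA fluorescence for expression and streptavidin fluorescence for reagent binding.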
row,Sequence,polyreactivity (PSR sort gate)
1,QVQLVESGGGLVQAGGSLRLSCAASGRIFYLYAMGWYRQAPGKERELVATINTSGGITYYADSVKGRFTISRDNAKNTVYLQMNSLKPEDTAVYYCNADWEWQYFYFRPGGYWGQGTQVTVSS,low polyreactivity
2,QVQLVESGGGLVQAGGSLRLSCAPSGSTLYFYAMGWYRQAPGKERELDADITWSGGSTYYADSVKGRFTISRDNAKNTVYLQMNSLKPEDTAVYYCNADDWSTYWYGYPGYVYWGQGTQVTVSS,high polyreactivity
3,QVQLVESGGGLVQAGGSLRLSCAASGSTFYIYTMGWYRQAPGKERELVATISWDGGNTYYADSVKGRFTISRDNAKNTVYLQMNSLKPEDTAVYYCARDSSIWSHGSWYDYWGQGTQVTVSS,low polyreactivity
4,QVQLVESGGGLVQAGGSLRLSCAASGITFYHYAMGWYRQAPGKERELVATISSRGGTTYYADSVKGRFTISRDNAKNTVYLQMNSLKPEDTAVYYCADRTWIIYPVSKYDSWGQGTQVTVSS,high polyreactivity
5,QVQLVESGGGLVQAGGSLRLSCAASGSIFLRNAMGWYRQAPGKERELVAAITKRGGSTYYADSVKGRFTISRDNAKNTVYLQMNSLKPEDTAVYYCNVDTYANTAFVRKPMYYWGQGTQVTVSS,low polyreactivity
6,QVQLVESGGGFVQAGGSLRLSCAASGIIFTLYTMGWYIQAPGKERELVASISTRGGSTYYADSVKGRFTISRDYAKNTVYLQMNSLKPEDTAVYYCAAQGGYPVWRYYYWGQGTQVTVSS,high polyreactivity
7,QVQLVESGGGLVQAGGSLRLSCAASGSIFVPYAMGWYRQAPGKERELVAAISSSTASTYYADSVKARFTISRDYAKNTVYFQMNCLKPEDTAVYYCNAEQWDYGVRVAHYDYWGQGTQVTVSS,low polyreactivity
8,QVQLVESGGGLVQAGGSLRLSCAASGFTFKYYVMGSYRQAPGKERFVAAITGSGASTYYADSVKGRFTISRDNAKNTVFLQMNSLKPEETAVYYCNADYYAGRYRYDYWGQGTQVTVSS,high polyreactivity
9,QVQLVESGGGLVQAGGSLRLSCAASGSIFHWYAMGWYRQAPGKERELVAAITWSGDTTYYADSVKGRFTISRDNAKNTVYLQMNSLKPEDTAVYYCAVERDDQDYDYWGQGTQVTVSS,low polyreactivity
10,QVQLVESGGGLLQAGGSLRLSCAASGRIFYYYAMGWYRQAPGKEREFVARNRSSGGSTYADSVKGRFTISRDNAKNTVYLQMNSLKPEDTAVYYCARDGYTAVEYDYWGQGTQVTVSS,low polyreactivity
11,QVQLVESGGGLVQAGGSLRLSCAASGLISTPNAMGWSRQAPGKERELVASISSRGGSTYYADSVKGRFTISRDNAKNTVYLQMNSLKPEDTAVYYCAADAYRDFYYEYYYWGQGSQVTVSS,low polyreactivity
12,QVQLVESGGGLVQAGGSLRLSCAASGSIFLVYAMGWYRQAPGKERELVAAIDWSDTDTYYADSVKGRFTISRDNAKNTFYLQMNSLKPEDTAVYYCAADHVGVDFEYWGQGTQVTVSS,low polyreactivity
13,QVQLVETGGGLVQAGGSLRLSCAASGFTFRRYTMGWYRQAPGKERELVAAISGRGGRTYYADSVKGRFTISRDNAKNTVDLQMNSLKPEDTAVYYCAADTPYCQSSKYDYWGQGNQVTVSS,high polyreactivity
14,QVQLVESGGGLVQAGGSLRLSCAASGSTFGLNPMGWYRQAPGKERELVAAISTSGGSTYYADSVKGRFTISRDNAKNTVYLQMNSLKPEDTAVYYCAAEVVAGYDYSQYYYWGQGTQVTVSS,low polyreactivity
15,QVQLVESGGGLVQAGGRLRLSCAASGSIFAGYAMGWYRQAPGKERELVAAITSSCGSTYYADSVKGRFTISRDNAKNTVYLQMNSLNPEDTAVYYCAKDKLIFYRVGSDYWGQGTQVTVSS,low polyreactivity
16,QVQLVESGGGLVQAGGSLRLSCAASGSIFKPYAMGWYRQAPGKERELVAAITRSGGSTYYADSVKGRFTISRDKAKNTVYLQMNSLKPEDTAVYYCAAGNAPYFRYGSKKYGYWGQGTQVTVSS,high polyreactivity
17,QVQLVESGGGLVQAGGSLRLSCAASGIIFPYYAMGWYRQAPGKERELVAGISWSGGSTYYADSVKGRFTISRDNAKNTVYLQMNSLKPEDTAVYYCAADYPATPDDDYWGQGTQVTVSS,high polyreactivity
18,QDQLVESGGGLVQAGGSLRLSCAASGSTIWGNAMGWYRQAPGKERELVAAITSTGSTNYADSVKARFTISRDNAKNTVYLQMNSLKPEVTAVYYCATAYYHTYWPTRRYYYWGQGTQVTVSS,high polyreactivity
19,QVQLVESGGGLVQAGGSIRLSCAASGRIFQYYAMGWYRQAPGKERELVAAISRSGGRTRYADSVKGRFTISRDNAKNTVYLQMNSLKPEDTAVYYCAASYGYDSTSLYDYWGQGTQVTVSS,high polyreactivity
20,QVQLVETGGGLVQAGGSLRLSCAASGSTFTSNAMGWYRPAPGKERELVAAIDSSDGITYYADSVKGRFTISRDNAKNTVYLQMNSLKPEDTAVYYCAAEDYEAGYDYWGQGTQVTVSS,high polyreactivity
21,QVQLVESGGGLVQAGGSLRLSCAASGRPFISYAMGWYRQAPGKERELVAAISSSGGSTYYADSVKGRFTMSRDTAKNTVYLQMNSLKPEDTAVYYCNAAKVRRDPAWRLLDYWGQGTQVTVSS,low polyreactivity
22,QVQLVESGGGLVQAGGSLRLSCAASGFILSDNAMGWYRQAPGKEREFVAAITSSGGSTHYADSVKGRFTISRDNAKNTVYLQMNSLKPEDTAVYYCAVGRPYWYDVWSFVSHYDYWGQGTQVTVSS,low polyreactivity

row,Sequence,polyreactivity (PSR sort gate)
1,QVQLVESGGGLVQAGGSLRLSCAASGSIFYGYTMGWYRQEPGKERELVAAIRKSGGSTNYADSVKGRFTISRDNAKNNVYLQMNSLKPEDTAVYYCAAAYYRGRGYYWGQGTQVTVSS,high polyreactivity
2,QVQLVESGGGLVKAGGSLRLSCAASGRIFKYYAMGWYRQAPGKERELVAAISSVGSTNYADSVKGRFTISRDNAKNTVYLQMNSLKPEDTGVYYCAAPYQHYDVNYDSWGQGTQVTVSS,low polyreactivity
3,QVQLVESGGGLVQAGGSLRLSCAASGSTFDGYTMGWYRQAPGKERELVAAISWRGTSTYYADSVKGRFTISRDNAKNTVYLQMNSLKPEDTAVYYCGAENWKPRVYWIYSGHHGYWGQGTQVTVSS,low polyreactivity
4,QVQLVESGGGLVQAGGSLRLSCAASGYIFKRYAMGWYRQAPGKERELVAAISSRGGSTYYADSVKGRFTISRDNAKNTVYLQMNSLKPEDTAVYYCAAVSWFRNYYWGQGTQVTVSS,high polyreactivity
5,QVQLVESGGGLVQAGGSLRLSCADSGRIFHYNAMGWYRQAPRKERELVAAISTGGSTNYADSVKGRFTISRDNAKNTVYLQMNSLNPEDTAVYYCAADHPVTYPTSKFDYCGQGTQVTVSS,low polyreactivity
6,QVQLVESGGGLVQAGGSLRLSCAASGSTFQLYAMGWYRPPPGTERELVAGISRDGSTYYADSVKARFSISRDNSKNTVYLQMNSLKPEDTAVYYCAAKYYGNKRDLYYWGQGTQVTVSS,low polyreactivity
7,QVQLVESGGGLVQAGGSLRLSCAASGITFAPYAMGWYRQAPGKEREFVAGISWSGTTTYYADSVKGRFTISRDNAKNTVYLQMNSLKPEDTAVYYCATDYFNYGYFDFRWYYYWGQGTQVTVSS,high polyreactivity
8,QVQLVESGGGLVQAGGSLRISCAASGFIFGTNAKGWYRQAPGKERELVAAINCRGGGTYYADSVKGRFTISRDNAKYTVYLEMNSLKPEDTAVYYCAASRFDYWGQGTQVTVSS,low polyreactivity
9,QVQLVESGGGLVQAGGSLRLSCAASGSTFWYYAMGWYRQAPGKERELVAAITSGDSTYYADSVKGRFTISRDNAKNTVYLQMNSLKPEDTAVYYCAADLPWEDGYYFYSGYTEYDYWGQGTQVTVSS,low polyreactivity
10,QVQLVESGGGLDQAGGSLRLSSAASGFTISWYDMGWYRQAPGKERELVAAITYTGGSTYYADSVKGRFTISRDNAKNTVYFQMNSLKPEDTAVYYCNADEPSSNMDYWGQGTQVTVSS,low polyreactivity
11,QVQLVESGGGLFQAGGSLRLSCAASGSTFRFNAMGWYRQAPGKERELVAAISRSGGTTYYADSVKGRFTISRDNAKNTVYLQMNSLKPEDTAVYYCNAQWWRYWPSQVIFDYWGQGTQVTVSS,high polyreactivity
12,QVQLVESGGGLVQAGGSLRLSCAASGYTFDLYAMGWYRQAPGKERELVADISSGGSTNYADSVKGRFTISRDNAKNTVYLQMNSLKPEDTAVYYCAVDADRTLFGQYYVSEYGGGYWGQGTQVTVSS,low polyreactivity
13,QVQLVESGGGLVQAGGSLRLSCAASGRTFVYNAMGWYRQAPGKERELVAAISSSGGSTRYADSVKGRFTISRDNAMNTVYLQMNSLKPEDTAVYYCATRTKAYLYTYYYWGQGTQVTVSS,high polyreactivity
14,QVQLVESVGGLVQAGGSLRLICAASGSTFTWYAIGWNRQAPGKERELVADITWRDGSTYYADSVKGRFTISRDNAKNTVYLQMNSLKPEDTAVYYCAADYTYWGIFFGYWGQGTQVTVSS,high polyreactivity
15,QVQLVESGGGLVQAGGSLRLSCAASGRTIDHYAMGWYRQAPGKERELVAAISTTGGSTYYADSVKGRFTISRDNAKNTVYLQMNSLKPEDTAVYYCAAQLGWWGSGYWGQGTQVTVSS,high polyreactivity
16,QVQLVESGGGLVQAGGSLRLSCAASGSIYYWYTMGWYRQAPGKERELVAAISLSDGRTYYADSVKGRFTISRDNAKNTVYLQMNSLKPEDTAVYYCAADYRDASGYYRYDYWGQGTQVTVSS,low polyreactivity
17,QVQLVESGGGLVQAGGSLRLSCAASGSNFVTYAMGWYRQAPGKERELVAAISYSGGSTYADSVKGRFTISRDNAKNTVYLQMNILKPEDTAVYYCNTDTSVDVRFDYWGQGTQVTVSS,low polyreactivity
18,QVQLVESGGGLVQAGGSHRLSCAASGFTIYGNAMGWYRQAPGKERELVAAISGSGGITYYADSVKGRFTISRDNAKNTVYLQMNSLKPEDTAVYYCAAEFWVSRSIWLYYYWGQGTQVTVSS,high polyreactivity
19,QVQLVESGGGLVQAGGSLRLSCAASGSTFDWYVMGWYRKAPGKERELVAAINQGSGSTYYADSVKGRFTISRDNAKNTVYLQMNSLKPEDTAVYYCAADRYGAGYLYWPYDYWGQGTQVTVSS,low polyreactivity
20,QVQLVESGGGLVQAGGSLRLSCAASGRIITRYAMGWYRQAPGKERELVAAISSGGSTYYADSVKGRFTISRDNAKNTVYLQMNSLKPEDTAVYYCARGWSGAYAGGYWGQGTQVTVSS,high polyreactivity
21,QVQLVESGGGLVQAGGSLRLSCAASGSIFYRNVMGWYRQAPGKERELVATISRGGTSNYADSVKGRFTISRDNAKNTVYLQMNSLKPEDTAVYYCAAPIGDVYVGKGYDSWGQGTQVTVSS,low polyreactivity
